Here are results for 8 molecules from US12077763B2, “RNA-based control of powdery mildew” (Greenlight Biosciences, Inc., priority 2021, dated 2024).

For this data set, the system named is E. necator. The data set is described as follows: Leaf disc assay, dry inoculum (settling tower), decrease in disease severity / hyphal growth (Example 2). Particulars: decrease in disease severity (hyphal growth) relative to untreated control, value ± SE; for % decrease =/− SE TP2: time point 2; for % decrease =/− SE TP1: time point 1 (untreated control hyphal growth ≥50%).

B1: GS3299 (nucleic acid)
sense: CACCAGGAUCCACCUAAAGAUGAGCCAACCGAUCAGAAGUCUCUGGAGCUGAGGAGAACCUUAUUUUAUAGUAUUUACUCUCUUGAUAGAUCUGUCAGUAUGGUUCACGCGCGCUCUUUUUCAUUUACCGACGAUUCGACUAGCGUUACUUUCCCAUCCAUUAAGAACGAGAAAUUACCAGUCGACACCAAAUUAAAACUAGGUAGGAAAUUCAAGAUUCAAUCCUCACUUUUAUUCAAACUUCGAAAGAUUCAGUCUUCAUGGUAUCACGAGCUUUUUCAAUCCAAAAAUGAUUUUAUAACAAAUCCAUCAACAUAUAUUCAGAAAGUGUGUCAAGAAAUGCAAGCAUGGGCUCAGUCGAUUCCCGAAUAUUUACCCACUCAUAUCAAAAAUUAUUU
antisense: AAAUAAUUUUUGAUAUGAGUGGGUAAAUAUUCGGGAAUCGACUGAGCCCAUGCUUGCAUUUCUUGACACACUUUCUGAAUAUAUGUUGAUGGAUUUGUUAUAAAAUCAUUUUUGGAUUGAAAAAGCUCGUGAUACCAUGAAGACUGAAUCUUUCGAAGUUUGAAUAAAAGUGAGGAUUGAAUCUUGAAUUUCCUACCUAGUUUUAAUUUGGUGUCGACUGGUAAUUUCUCGUUCUUAAUGGAUGGGAAAGUAACGCUAGUCGAAUCGUCGGUAAAUGAAAAAGAGCGCGCGUGAACCAUACUGACAGAUCUAUCAAGAGAGUAAAUACUAUAAAAUAAGGUUCUCCUCAGCUCCAGAGACUUCUGAUCGGUUGGCUCAUCUUUAGGUGGAUCCUGGUG
Take B1: the “% decrease =/− SE TP2” value was 14 ± 7%.

B2: GS3302 (nucleic acid)
sense: UCUGAAGAGCCCUACCACUAUAAAGGUGUCAAGCUAGGUCAUUGAGAGGAUUGAGUUACGAAAUUUGAUUGCAGCCACGCCUUCGACUUCAACCGAGAAGAGUUCCAAUCUCCCUCUUAGACGCAGGACUACUCUCACGAUACUUCUGUCUCUACUUCUUCUCAUGAGCACGCUAAUACUCUCUAAGCCUCCGUUGAUGUGUUGAAAGACAGGCACCUCAGUUUUGAUUCUAUUCAGCUCGGCAAACAUG
antisense: CAUGUUUGCCGAGCUGAAUAGAAUCAAAACUGAGGUGCCUGUCUUUCAACACAUCAACGGAGGCUUAGAGAGUAUUAGCGUGCUCAUGAGAAGAAGUAGAGACAGAAGUAUCGUGAGAGUAGUCCUGCGUCUAAGAGGGAGAUUGGAACUCUUCUCGGUUGAAGUCGAAGGCGUGGCUGCAAUCAAAUUUCGUAACUCAAUCCUCUCAAUGACCUAGCUUGACACCUUUAUAGUGGUAGGGCUCUUCAGA
B2: the “% decrease =/− SE TP1” value was determined as 31 ± 5% and the “% decrease =/− SE TP2” value is 22 ± 7%.

B3: GS3298 (nucleic acid)
sense: AUGCCUUACAAGGAGAAGAGGUCCGUGAGAAUUUUGACUCAUCUUUUGCCGCUCUUUAUCAUGAUCUUGAUAUGGGAUUUACACCGAUCAACUUUACAUUUUACUGGGCACCUCUACCUUGGAAUCGUGCUCGUGAUCAUGCCCAAAGAACUGUUGCUAGGACUUAUAUGAAUAUAAUCCAAGCUCGUAGAGAAGAGAAAACGUCAACAACCCCCCUCCUCUUCCCCUUCCCCUUCAUUGAACCUCGCUCCAAGGGGGCUUUAUGGGAAUCUGCCUCGUAGUAUAAAGUUCUGCAGCUGGCUCUACGGAUUGCAUCUACAACAACUACAACAUCAUCAUCAUCAUCAUCUUCAUCUUCAUCUUCUCCACCUUCAUAAGCUUCUACGUUUUUGCAUGUUCAA
antisense: UUGAACAUGCAAAAACGUAGAAGCUUAUGAAGGUGGAGAAGAUGAAGAUGAAGAUGAUGAUGAUGAUGAUGUUGUAGUUGUUGUAGAUGCAAUCCGUAGAGCCAGCUGCAGAACUUUAUACUACGAGGCAGAUUCCCAUAAAGCCCCCUUGGAGCGAGGUUCAAUGAAGGGGAAGGGGAAGAGGAGGGGGGUUGUUGACGUUUUCUCUUCUCUACGAGCUUGGAUUAUAUUCAUAUAAGUCCUAGCAACAGUUCUUUGGGCAUGAUCACGAGCACGAUUCCAAGGUAGAGGUGCCCAGUAAAAUGUAAAGUUGAUCGGUGUAAAUCCCAUAUCAAGAUCAUGAUAAAGAGCGGCAAAAGAUGAGUCAAAAUUCUCACGGACCUCUUCUCCUUGUAAGGCAU
In the case of B3, the “% decrease =/− SE TP1” value turned out to be 22 ± 5% and the “% decrease =/− SE TP2” value amounted to 7 ± 7%.

B4: GS3300 (nucleic acid)
sense: GUAUCAACCAUUGCCUCUCCAAACCUUUCACCAACAACUUCCUUUUCAUCUUUUGUACGAACAGAAACGCCUGAUUCCAGUCUGCCAUUUAUAGAAAAUCCAGUGGCUAGACAAAAUGCACAUUGUAGUAGUAAGAGUGUUGGCAAUGGAAAUGGAAUUUUUAACUUGGACAUGAAUCUUUUGGCUUCUGCUGCUAUUAGGGUGGAAGGGAAUCACUCAUCAAACGCUUGUCAUCUCCCCCGAUACAAUAAAUCAUGCUGCGACCUCAGUGCGUACAAGAGUCGUUCUCAUUUUGCCUCAUCAUCACUUGUUCAGUCUCAUCCACCUCCGACAUUAGACAAGCUCAAUCAUUGCAUUAAGAGGUAUAUGAAGCGUUCACGAACUGACU
antisense: AGUCAGUUCGUGAACGCUUCAUAUACCUCUUAAUGCAAUGAUUGAGCUUGUCUAAUGUCGGAGGUGGAUGAGACUGAACAAGUGAUGAUGAGGCAAAAUGAGAACGACUCUUGUACGCACUGAGGUCGCAGCAUGAUUUAUUGUAUCGGGGGAGAUGACAAGCGUUUGAUGAGUGAUUCCCUUCCACCCUAAUAGCAGCAGAAGCCAAAAGAUUCAUGUCCAAGUUAAAAAUUCCAUUUCCAUUGCCAACACUCUUACUACUACAAUGUGCAUUUUGUCUAGCCACUGGAUUUUCUAUAAAUGGCAGACUGGAAUCAGGCGUUUCUGUUCGUACAAAAGAUGAAAAGGAAGUUGUUGGUGAAAGGUUUGGAGAGGCAAUGGUUGAUAC
For the molecule B4, the “% decrease =/− SE TP1” value was 9 ± 5% and the “% decrease =/− SE TP2” value is reported as 4 ± 8%.

B5: GS3301 (nucleic acid)
sense: CAACAGGGACCAGUUACCCUACACCUACUGGAGGUUACUCUGAAGAGCCCUACCACUAUAAAGGUGUCAAGCUAGGUCAUUGAGAGGAUUGAGUUACGAAAUUUGAUUGCAGCCACGCCUUCGACUUCAACCGAGAAGAGUUCCAAUCUCCCUCUUAGACGCAGGACUACUCUCACGAUACUUCUGUCUCUACUUCUUCUCAUGAGCACGCUAAUACUCUCUAAGCCUCCGUUGAUGUGUUGAAAGACAGGCACCUCAGUUUUGAUUCUAUUCAGCUCGGCAAACAUGUUGUGUACAUUCAUAGACUGAAUUUCUUUUUUAUUAUUU
antisense: AAAUAAUAAAAAAGAAAUUCAGUCUAUGAAUGUACACAACAUGUUUGCCGAGCUGAAUAGAAUCAAAACUGAGGUGCCUGUCUUUCAACACAUCAACGGAGGCUUAGAGAGUAUUAGCGUGCUCAUGAGAAGAAGUAGAGACAGAAGUAUCGUGAGAGUAGUCCUGCGUCUAAGAGGGAGAUUGGAACUCUUCUCGGUUGAAGUCGAAGGCGUGGCUGCAAUCAAAUUUCGUAACUCAAUCCUCUCAAUGACCUAGCUUGACACCUUUAUAGUGGUAGGGCUCUUCAGAGUAACCUCCAGUAGGUGUAGGGUAACUGGUCCCUGUUG
As to B5, the “% decrease =/− SE TP1” value is recorded as 32 ± 5% and the “% decrease =/− SE TP2” value was 0 ± 9%.

B6: GS3297 (nucleic acid)
sense: GAGAAGAGGUCCGUGAGAAUUUUGACUCAUCUUUUGCCGCUCUUUAUCAUGAUCUUGAUAUGGGAUUUACACCGAUCAACUUUACAUUUUACUGGGCACCUCUACCUUGGAAUCGUGCUCGUGAUCAUGCCCAAAGAACUGUUGCUAGGACUUAUAUGAAUAUAAUCCAAGCUCGUACCCUCCUCUUCCCCUUCCCCUUCAUUGAACCUCGCUCCAAGGGGGCUUUAUGGGAAUCUGCCUCGUAGUAUAAAGUUCUGCAGCUGGCUCUACGGAUUGCAUCUACAACAACUACAACAUCAUCAUCAUCAUCAUCUUCAUCUUCAUCUUCUCCACCUUCAUAAGCUUCUACGUUUU
antisense: AAAACGUAGAAGCUUAUGAAGGUGGAGAAGAUGAAGAUGAAGAUGAUGAUGAUGAUGAUGUUGUAGUUGUUGUAGAUGCAAUCCGUAGAGCCAGCUGCAGAACUUUAUACUACGAGGCAGAUUCCCAUAAAGCCCCCUUGGAGCGAGGUUCAAUGAAGGGGAAGGGGAAGAGGAGGGUACGAGCUUGGAUUAUAUUCAUAUAAGUCCUAGCAACAGUUCUUUGGGCAUGAUCACGAGCACGAUUCCAAGGUAGAGGUGCCCAGUAAAAUGUAAAGUUGAUCGGUGUAAAUCCCAUAUCAAGAUCAUGAUAAAGAGCGGCAAAAGAUGAGUCAAAAUUCUCACGGACCUCUUCUC
On to B6, for which the “% decrease =/− SE TP1” value was determined as 12 ± 6% and the “% decrease =/− SE TP2” value came to 22 ± 7%.

B7: GS3303 (nucleic acid)
sense: UUACCCUACACCUACUGGAGGUUACUCUGAAGAGCCCUACCACUAUAAAGGUGUCAAGCUAGGUCAUUGAGAGGAUUGAGUUACGAAAUUUGAUUGCAGCCACGCCUUCGACUUCAACCGAGAAGAGUUCCAAUCUCCCUCUUAGACGCAGGACUACUCUCACGAUACUUCUGUCUCUACUUCUUCUCAUGAGCACGCUAAUACUCUCUAAGCCUCCGUUGAUGUGUUGAAAGACAGGCACCUCAGUUUUGAUUCUAUUCAGCUCGGCAAACAUGUUGUGUACAUUCAUAGACUGAAUUU
antisense: AAAUUCAGUCUAUGAAUGUACACAACAUGUUUGCCGAGCUGAAUAGAAUCAAAACUGAGGUGCCUGUCUUUCAACACAUCAACGGAGGCUUAGAGAGUAUUAGCGUGCUCAUGAGAAGAAGUAGAGACAGAAGUAUCGUGAGAGUAGUCCUGCGUCUAAGAGGGAGAUUGGAACUCUUCUCGGUUGAAGUCGAAGGCGUGGCUGCAAUCAAAUUUCGUAACUCAAUCCUCUCAAUGACCUAGCUUGACACCUUUAUAGUGGUAGGGCUCUUCAGAGUAACCUCCAGUAGGUGUAGGGUAA
For the molecule B7, the “% decrease =/− SE TP1” value is 35 ± 5% and the “% decrease =/− SE TP2” value was found to be 15 ± 9%.

B8: GS3304 (nucleic acid)
sense: GUUACGCAUCGCCAACAGGGACCAGUUACCCUACACCUACUGGAGGUUACUCUGAAGAGCCCUACCACUAUAAAGGUGUCAAGCUAGGUCAUUGAGAGGAUUGAGUUACGAAAUUUGAUUGCAGCCACGCCUUCGACUUCAACCGAGAAGAGUUCCAAUCUCCCUCUUAGACGCAGGACUACUCUCACGAUACUUCUGUCUCUACUUCUUCUCAUGAGCACGCUAAUACUCUCUAAGCCUCCGUUGAUGUGUUGAAAGACAGGCACCUCAGUUUUGAUUCUAUUCAGCUCGGCAAACAUGUUGUGUACAUUCAUAGACUGAAUUUCUUUUUUAUUAUUUUUUUCCAAAUA
antisense: UAUUUGGAAAAAAAUAAUAAAAAAGAAAUUCAGUCUAUGAAUGUACACAACAUGUUUGCCGAGCUGAAUAGAAUCAAAACUGAGGUGCCUGUCUUUCAACACAUCAACGGAGGCUUAGAGAGUAUUAGCGUGCUCAUGAGAAGAAGUAGAGACAGAAGUAUCGUGAGAGUAGUCCUGCGUCUAAGAGGGAGAUUGGAACUCUUCUCGGUUGAAGUCGAAGGCGUGGCUGCAAUCAAAUUUCGUAACUCAAUCCUCUCAAUGACCUAGCUUGACACCUUUAUAGUGGUAGGGCUCUUCAGAGUAACCUCCAGUAGGUGUAGGGUAACUGGUCCCUGUUGGCGAUGCGUAAC
For the molecule B8, the “% decrease =/− SE TP2” value is 6 ± 7%.
